# Source: publication PMC6679477, “Optimization of a nicotine degrading enzyme for potential use in treatment of nicotine addiction” (BMC Biotechnology, 2019)
# B1: wt NicA2 (Pseudomonas putida S16) (protein)
# chain: MSDKTKTNEGFSRRSFIGSAAVVTAGVAGLGAIDAASATQKTNRASTVKGGFDYDVVVVGGGFAGATAARECGLQGYRTLLLEARSRLGGRTFTSRFAGQEIEFGGAWVHWLQPHVWAEMQRYGLGVVEDPLTNLDKTLIMYNDGSVESISPDEFGKNIRIAFEKLCHDAWEVFPRPHEPMFTERARELDKSSVLDRIKTLGLSRLQQAQINSYMALYAGETTDKFGLPGVLKLFACGGWNYDAFMDTETHYRIQGGTIGLINAMLTDSGAEVRMSVPVTAVEQVNGGVKIKTDDDEIITAGVVVMTVPLNTYKHIGFTPALSKGKQRFIKEGQLSKGAKLYVHVKQNLGRVFAFADEQQPLNWVQTHDYSDELGTILSITIARKETIDVNDRDAVTREVQKMFPGVEVLGTAAYDWTADPFSLGAWAAYGVGQLSRLKDLQAAEGRILFAGAETSNGWHANIDGAVESGLRAGREVKQLLS
# notes: full-length, C-terminal His6 tag kept, expressed in E. coli, purified, 52 kDa on SDS-PAGE; FAD enzyme
# System: T1, CN1CCC[C@H]1c1cccnc1
# T1 construct: full-length, C-terminal His6 tag kept, expressed in E. coli, purified, 52 kDa on SDS-PAGE; FAD enzyme
# Assay: residual nicotine by GC; progress curves fitted in KinTek, Km derived from kcat/Km and kcat
# Assay type: biochemical, Pseudomonas putida
# Settings: rat serum, 37 °C, 250 nM (40 ng/mL) nicotine, O2 as oxidant
# Description: (§1) residual nicotine by GC; progress curves fitted in KinTek, Km derived from kcat/Km and kcat on wt NicA2
Molecule,Km,kcat,kcat/Km
wt NicA2 (Pseudomonas putida S16; A107R),0.83 µM,0.159 s⁻¹,190000 M⁻¹ s⁻¹
wt NicA2 (Pseudomonas putida S16; F104T),0.33 µM,0.055 s⁻¹,170000 M⁻¹ s⁻¹
wt NicA2 (Pseudomonas putida S16; F104S),0.25 µM,0.031 s⁻¹,130000 M⁻¹ s⁻¹
wt NicA2 (Pseudomonas putida S16; G106A),0.28 µM,0.031 s⁻¹,110000 M⁻¹ s⁻¹
wt NicA2 (Pseudomonas putida S16; F104I),0.24 µM,0.039 s⁻¹,160000 M⁻¹ s⁻¹
wt NicA2 (Pseudomonas putida S16; A107T),0.285 µM,0.05 s⁻¹,180000 M⁻¹ s⁻¹
wt NicA2 (Pseudomonas putida S16; A107G),0.335 µM,0.053 s⁻¹,160000 M⁻¹ s⁻¹
wt NicA2 (Pseudomonas putida S16; F355H),0.22 µM,0.029 s⁻¹,130000 M⁻¹ s⁻¹
wt NicA2 (Pseudomonas putida S16; A426C),0.23 µM,0.03 s⁻¹,130000 M⁻¹ s⁻¹
wt NicA2 (Pseudomonas putida S16; F104R),0.27 µM,0.041 s⁻¹,150000 M⁻¹ s⁻¹

# Substrate: CN1CCC[C@H]1c1cccnc1
# Assay: as above
# Assay type: biochemical, Pseudomonas putida
# Settings: rat serum, 37 °C, 250 nM (40 ng/mL) nicotine, O2 as oxidant
# Description: as §1
Molecule,Km,kcat,kcat/Km
B1,0.24 µM,0.015 s⁻¹,64000 M⁻¹ s⁻¹
